T1: GST-DAZL (UniProt Q92904 1-295)
T1 sequence: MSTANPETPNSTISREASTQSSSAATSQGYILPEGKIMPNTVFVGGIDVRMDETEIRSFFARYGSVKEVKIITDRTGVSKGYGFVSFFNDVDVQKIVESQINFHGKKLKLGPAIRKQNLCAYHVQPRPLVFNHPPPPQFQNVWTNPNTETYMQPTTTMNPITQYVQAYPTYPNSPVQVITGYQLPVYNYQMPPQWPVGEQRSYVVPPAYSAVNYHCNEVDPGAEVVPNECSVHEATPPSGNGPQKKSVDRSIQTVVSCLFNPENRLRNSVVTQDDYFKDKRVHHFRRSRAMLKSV

T2: GST-RRM (DAZL RRM domain) (UniProt Q92904 40-115)
T2 sequence: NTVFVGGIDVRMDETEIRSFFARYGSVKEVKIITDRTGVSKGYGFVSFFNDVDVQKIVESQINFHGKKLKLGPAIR

B1: pre-let-7c (structured_RNA)
RNA: GCAUCCGGGUUGAGGUAGUAGGUUGUAUGGUUUAGAGUUACACCCUGGGAGUUAACUGUACAACCUUCUAGCUUUCCUUGGAGC
B2: pre-let-7i (structured_RNA)
RNA: CUGGCUGAGGUAGUAGUUUGUGCUGUUGGUCGGGUUGUGACAUUGCCCGCUGUGGAGAUAACUGCGCAAGCUACUGCCUUGCUA
B3: pre-miR-185 (structured_RNA)
RNA: AGGGGGCGAGGGAUUGGAGAGAAAGGCAGUUCCUGAUGGUCCCCUCCCCAGGGGCUGGCUUUCCUCUGGUCCUUCCCUCCCA
B4: pre-miR-199a (structured_RNA)
RNA: GCCAACCCAGUGUUCAGACUACCUGUUCAGGAGGCUCUCAAUGUGUACAGUAGUCUGCACAUUGGUUAGGC

Assays:
[1] = molecular target: T1, GST-DAZL; assay: EMSA; 10 mM HEPES pH 7.4, 50 mM KCl, 1 mM EDTA, 0.05% Triton X-100, 5% glycerol, 0.01 mg/ml BSA, 1 mM DTT; 10 nM FAM-RNA, 40 min; temperature not stated; conditions: protein: recombinant; tags: N-terminal GST; label: 5'-FAM
[2] = molecular target: T1, GST-DAZL; assay: EMSA; 3000 nM DAZL; 10 mM HEPES pH 7.4, 50 mM KCl, 1 mM EDTA, 0.05% Triton X-100, 5% glycerol, 0.01 mg/ml BSA, 1 mM DTT; 10 nM FAM-RNA, 40 min; temperature not stated; conditions: protein: recombinant; tags: N-terminal GST; label: 5'-FAM; hairpin
[3] = molecular target: T1, GST-DAZL; assay: EMSA; 5000 nM DAZL; 10 mM HEPES pH 7.4, 50 mM KCl, 1 mM EDTA, 0.05% Triton X-100, 5% glycerol, 0.01 mg/ml BSA, 1 mM DTT; 10 nM FAM-RNA, 40 min; temperature not stated; conditions: protein: recombinant; tags: N-terminal GST; label: 5'-FAM; hairpin
[4] = molecular target: T1, GST-DAZL; assay: EMSA; only slightly affected vs wild type; 10 mM HEPES pH 7.4, 50 mM KCl, 1 mM EDTA, 0.05% Triton X-100, 5% glycerol, 0.01 mg/ml BSA, 1 mM DTT; 10 nM FAM-RNA, 40 min; temperature not stated; conditions: protein: recombinant; tags: N-terminal GST; label: 5'-FAM
[5] = molecular target: T2, GST-RRM (DAZL RRM domain); assay: EMSA; 10 mM HEPES pH 7.4, 50 mM KCl, 1 mM EDTA, 0.05% Triton X-100, 5% glycerol, 0.01 mg/ml BSA, 1 mM DTT; 10 nM FAM-RNA, 40 min; temperature not stated; conditions: protein: recombinant; tags: N-terminal GST; label: 5'-FAM; hairpin

Row | Binder | binding signal [2] [% shifted] | binding signal [3] [% shifted] | also measured
1 | UAGAGUUACACCCUGGGAGUUAA (ssRNA) [pre-let-7c loop] |  |  | binding result [1]: binds
2 | B1 | 37.4 | 41.3 | 
3 | UAGAAUUACACCCUGGGAAUUAA (ssRNA) [pre-let-7c loop, first G to A in both GUU] |  |  | binding result [4]: binds
4 | B2 | 37 | 50.9 | 
5 | B3 |  |  | binding result [5]: no binding
6 | UAGAGAUACACCCUGGGAGAUAA (ssRNA) [pre-let-7c loop, second U to A in both GUU] |  |  | binding result [4]: binds
7 | B4 | 18.1 | 22.1 | 

Source: article PMC9638919, “DAZL regulates proliferation of human primordial germ cells by direct binding to precursor miRNAs and enhances DICER processing activity”
